Data published in patent US20250215412A1 (NOVOZYMES A S, published 2025).

What was measured:
Test in all cases: cell-based or functional assay
[1] = target: T1, Chryseobacterium sp-62563 deamidase V190A (Chryseobacterium sp-62563)
T1 chain: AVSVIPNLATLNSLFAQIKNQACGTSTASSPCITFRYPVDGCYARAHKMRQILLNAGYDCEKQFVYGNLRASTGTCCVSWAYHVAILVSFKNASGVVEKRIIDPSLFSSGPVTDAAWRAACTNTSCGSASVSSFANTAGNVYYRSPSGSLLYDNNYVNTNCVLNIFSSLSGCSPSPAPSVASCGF

[2] = target: T2, Chryseobacterium sp-62563 deamidase V190F (Chryseobacterium sp-62563)
T2 chain: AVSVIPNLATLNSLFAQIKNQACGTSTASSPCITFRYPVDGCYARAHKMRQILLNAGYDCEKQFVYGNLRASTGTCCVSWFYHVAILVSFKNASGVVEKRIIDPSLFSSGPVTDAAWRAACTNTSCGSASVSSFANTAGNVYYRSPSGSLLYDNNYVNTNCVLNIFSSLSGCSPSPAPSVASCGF

[3] = target: T3, Chryseobacterium sp-62563 deamidase V190G (Chryseobacterium sp-62563)
T3 chain: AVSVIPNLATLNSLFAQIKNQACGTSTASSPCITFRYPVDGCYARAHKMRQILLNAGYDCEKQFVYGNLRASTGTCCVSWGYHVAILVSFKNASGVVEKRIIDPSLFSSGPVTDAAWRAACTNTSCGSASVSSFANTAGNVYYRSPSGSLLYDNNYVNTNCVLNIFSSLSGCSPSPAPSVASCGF

[4] = target: T4, Chryseobacterium sp-62563 deamidase V190P (Chryseobacterium sp-62563)
T4 chain: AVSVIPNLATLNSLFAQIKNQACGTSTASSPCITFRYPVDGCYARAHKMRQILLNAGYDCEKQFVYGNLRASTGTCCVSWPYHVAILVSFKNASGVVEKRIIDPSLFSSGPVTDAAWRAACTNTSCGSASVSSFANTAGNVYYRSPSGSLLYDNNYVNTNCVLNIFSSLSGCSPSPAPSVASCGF

[5] = target: T5, Chryseobacterium sp-62563 deamidase V190Q (Chryseobacterium sp-62563)
T5 chain: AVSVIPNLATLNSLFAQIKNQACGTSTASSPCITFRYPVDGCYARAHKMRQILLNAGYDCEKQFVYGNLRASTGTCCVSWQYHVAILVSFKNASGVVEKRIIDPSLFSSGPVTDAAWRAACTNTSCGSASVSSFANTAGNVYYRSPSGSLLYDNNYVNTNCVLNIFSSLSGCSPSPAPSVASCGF

[6] = target: T6, Chryseobacterium sp-62563 deamidase S254K (Chryseobacterium sp-62563)
T6 chain: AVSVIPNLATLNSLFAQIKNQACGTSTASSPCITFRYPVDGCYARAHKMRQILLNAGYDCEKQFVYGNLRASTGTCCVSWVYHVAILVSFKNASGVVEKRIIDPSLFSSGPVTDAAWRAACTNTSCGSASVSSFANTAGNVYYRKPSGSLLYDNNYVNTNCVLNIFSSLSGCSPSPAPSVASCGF

[7] = target: T7, Chryseobacterium sp-62563 deamidase S256D (Chryseobacterium sp-62563)
T7 chain: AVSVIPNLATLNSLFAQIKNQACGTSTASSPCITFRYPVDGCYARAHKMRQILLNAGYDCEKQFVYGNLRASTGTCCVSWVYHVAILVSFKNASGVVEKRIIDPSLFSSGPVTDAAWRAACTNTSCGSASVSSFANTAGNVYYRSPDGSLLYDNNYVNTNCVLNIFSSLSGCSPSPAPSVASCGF

[8] = target: T8, Chryseobacterium sp-62563 deamidase L260E (Chryseobacterium sp-62563)
T8 chain: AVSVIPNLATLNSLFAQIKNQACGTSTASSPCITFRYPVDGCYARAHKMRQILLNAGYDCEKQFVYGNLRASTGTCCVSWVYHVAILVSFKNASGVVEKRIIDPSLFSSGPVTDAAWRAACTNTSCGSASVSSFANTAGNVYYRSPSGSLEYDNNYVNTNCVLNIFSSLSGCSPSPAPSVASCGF

[9] = target: T9, Chryseobacterium sp-62563 deamidase T268I (Chryseobacterium sp-62563)
T9 chain: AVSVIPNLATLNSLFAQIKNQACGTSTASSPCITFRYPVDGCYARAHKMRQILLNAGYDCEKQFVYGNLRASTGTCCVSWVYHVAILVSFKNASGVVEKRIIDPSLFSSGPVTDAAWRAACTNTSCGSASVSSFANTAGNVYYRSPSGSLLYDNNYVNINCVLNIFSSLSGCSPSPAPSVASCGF

[10] = target: T10, Chryseobacterium sp-62563 deamidase polypeptide (second polypeptide, deamidase domain), wildtype (Chryseobacterium sp-62563)
T10 chain: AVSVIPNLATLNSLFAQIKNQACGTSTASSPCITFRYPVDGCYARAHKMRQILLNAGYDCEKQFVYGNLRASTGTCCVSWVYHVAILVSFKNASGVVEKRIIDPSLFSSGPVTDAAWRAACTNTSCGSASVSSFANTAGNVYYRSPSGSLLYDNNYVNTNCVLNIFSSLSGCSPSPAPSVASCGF

[11] = target: T11, Chryseobacterium sp-62563 deamidase V190M (Chryseobacterium sp-62563)
T11 chain: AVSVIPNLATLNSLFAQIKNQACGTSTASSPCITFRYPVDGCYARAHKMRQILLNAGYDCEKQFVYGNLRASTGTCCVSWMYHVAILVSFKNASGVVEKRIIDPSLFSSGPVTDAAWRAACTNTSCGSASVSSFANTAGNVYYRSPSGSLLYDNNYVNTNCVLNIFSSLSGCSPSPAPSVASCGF

[12] = target: T8, Chryseobacterium sp-62563 deamidase …
[13] = target: T12, Chryseobacterium sp-62563 deamidase L260K (Chryseobacterium sp-62563)
T12 chain: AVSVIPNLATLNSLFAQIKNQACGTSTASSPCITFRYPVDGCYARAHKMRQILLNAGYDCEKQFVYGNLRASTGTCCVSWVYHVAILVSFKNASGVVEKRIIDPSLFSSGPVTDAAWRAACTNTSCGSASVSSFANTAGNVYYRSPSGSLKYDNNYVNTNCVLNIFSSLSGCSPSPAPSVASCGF

B1: Chryseobacterium sp-62563 propeptide (first polypeptide, propeptide domain), wildtype (other)
chain: NQDPNLVAKESNETAMKDFGKTVPVGIEKEDGKFKISFMVTAQPYEIKDSKENAAYISMIKTAVENETPIHVFLKANTNEIAKVDKATDDDIRYFKSVFTKEVKEENRK
NanoDSF thermal unfolding temperature [1]: 68.6 ° C. | NanoDSF thermal unfolding temperature [2]: 78.2 ° C. | NanoDSF thermal unfolding temperature [3]: 78 ° C. | NanoDSF thermal unfolding temperature [4]: 74.9 ° C. | NanoDSF thermal unfolding temperature [5]: 75.8 ° C. | NanoDSF thermal unfolding temperature [6]: 81.1 ° C. | NanoDSF thermal unfolding temperature [7]: 81.5 ° C. | NanoDSF thermal unfolding temperature [8]: 72.6 ° C. | NanoDSF thermal unfolding temperature [9]: 76.2 ° C. | Relative activity of maturated deamidase [10]: < 20 % initial rate | Relative activity of maturated deamidase [11]: 44 % initial rate | Relative activity of maturated deamidase [12]: 53 % initial rate | Relative activity of maturated deamidase [13]: 73 % initial rate
